Assay results published in patent US20250114450A1 (AKESO BIOPHARMA, published 2025).

Molecular target: T1, FcγRI (UniProt P12314 16-288, limits assumed)
T1 construct: construct not described; also called CD64; FcγRIa
Assay: BLI (Fortebio Octet), FcγRI immobilized on HIS1K sensor, antibody 3.12-50 nM, 1:1 fit
Protocol: 1 μg/mL FcγRIa was immobilized on the HIS1K sensor for 50 s. The sensor was equilibrated in a buffer for 60 s, and the binding of the immobilized CD64 on the sensor to the antibodies at concentrations of 3.12-50 nM (two-fold dilution) was determined for 120 s. The antibody was dissociated in the buffer for 120 s. The sensor was refreshed 4 times in 10 mM glycine pH 1.5, each for 5 s. The detection temperature was 30° C. and the frequency was 0.3 Hz. The data were analyzed by 1:1 model fitting to obtain affinity constants.

T1 sequence (P12314 16-288 limits assumed): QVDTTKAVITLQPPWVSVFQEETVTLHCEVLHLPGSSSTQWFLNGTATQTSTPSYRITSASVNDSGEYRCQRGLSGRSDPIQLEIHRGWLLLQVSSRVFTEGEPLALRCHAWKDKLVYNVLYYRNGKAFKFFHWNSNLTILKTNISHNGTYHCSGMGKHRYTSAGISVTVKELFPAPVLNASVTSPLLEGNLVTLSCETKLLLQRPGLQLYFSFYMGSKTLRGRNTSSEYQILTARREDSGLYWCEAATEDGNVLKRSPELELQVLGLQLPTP

- Kd: 3.68 nM
B1: Bevacizumab (antibody, human IgG1, kappa)
heavy: not shown
light: not shown
notes: also called Avastin; anti-VEGFA monoclonal antibody
